Reference: paper PMC11719849, “Allosteric modulation of the Lon protease via ssDNA binding and local charge changes”

T1: Lon (wild type) (Caulobacter crescentus, UniProt P0CAW0 1-799)
T1 sequence: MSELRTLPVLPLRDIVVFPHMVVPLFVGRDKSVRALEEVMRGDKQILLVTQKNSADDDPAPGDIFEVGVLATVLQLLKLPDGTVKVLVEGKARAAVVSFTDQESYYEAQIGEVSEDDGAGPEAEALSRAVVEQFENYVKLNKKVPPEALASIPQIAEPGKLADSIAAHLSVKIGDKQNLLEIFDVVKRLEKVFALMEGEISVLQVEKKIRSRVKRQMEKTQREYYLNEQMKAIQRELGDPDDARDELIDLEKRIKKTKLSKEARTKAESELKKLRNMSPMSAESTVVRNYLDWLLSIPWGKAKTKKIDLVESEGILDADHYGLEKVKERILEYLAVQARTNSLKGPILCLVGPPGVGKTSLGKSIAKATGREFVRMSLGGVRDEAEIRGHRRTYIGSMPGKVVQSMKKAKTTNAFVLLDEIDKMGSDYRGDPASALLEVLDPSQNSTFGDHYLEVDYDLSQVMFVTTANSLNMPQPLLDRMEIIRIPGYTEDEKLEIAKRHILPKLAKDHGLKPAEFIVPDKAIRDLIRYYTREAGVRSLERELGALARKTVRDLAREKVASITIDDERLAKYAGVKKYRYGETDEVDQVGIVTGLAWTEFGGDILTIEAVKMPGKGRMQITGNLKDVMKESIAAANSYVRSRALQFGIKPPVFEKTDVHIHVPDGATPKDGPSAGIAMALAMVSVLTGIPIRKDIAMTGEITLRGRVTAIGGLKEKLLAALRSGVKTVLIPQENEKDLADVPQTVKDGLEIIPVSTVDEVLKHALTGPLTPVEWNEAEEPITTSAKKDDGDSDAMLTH

T2: Lon4A (Caulobacter crescentus, UniProt P0CAW0 1-799, K301A;K303A;K305A;K306A)
T2 sequence: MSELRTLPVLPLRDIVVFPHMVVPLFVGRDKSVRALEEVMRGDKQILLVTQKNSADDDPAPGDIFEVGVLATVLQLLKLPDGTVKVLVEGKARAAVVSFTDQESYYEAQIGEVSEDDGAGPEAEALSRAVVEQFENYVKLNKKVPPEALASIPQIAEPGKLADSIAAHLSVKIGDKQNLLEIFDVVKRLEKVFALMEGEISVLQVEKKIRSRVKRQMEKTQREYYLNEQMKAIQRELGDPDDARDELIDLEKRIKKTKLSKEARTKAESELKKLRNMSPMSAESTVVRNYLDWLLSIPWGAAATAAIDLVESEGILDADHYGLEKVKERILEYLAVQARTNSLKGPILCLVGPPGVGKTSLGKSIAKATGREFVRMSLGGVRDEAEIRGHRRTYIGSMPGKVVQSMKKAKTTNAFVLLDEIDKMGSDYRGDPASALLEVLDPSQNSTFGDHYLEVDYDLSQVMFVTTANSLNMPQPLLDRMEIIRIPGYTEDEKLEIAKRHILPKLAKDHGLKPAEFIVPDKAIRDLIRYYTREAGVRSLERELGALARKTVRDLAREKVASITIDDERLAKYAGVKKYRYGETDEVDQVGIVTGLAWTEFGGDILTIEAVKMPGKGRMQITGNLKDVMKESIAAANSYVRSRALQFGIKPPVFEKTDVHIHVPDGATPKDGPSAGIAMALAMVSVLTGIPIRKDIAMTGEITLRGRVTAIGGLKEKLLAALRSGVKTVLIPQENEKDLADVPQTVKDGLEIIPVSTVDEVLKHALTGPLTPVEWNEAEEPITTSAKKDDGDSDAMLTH

T3: Lon4E (Caulobacter crescentus, UniProt P0CAW0 1-799, K301E;K303E;K305E;K306E)
T3 sequence: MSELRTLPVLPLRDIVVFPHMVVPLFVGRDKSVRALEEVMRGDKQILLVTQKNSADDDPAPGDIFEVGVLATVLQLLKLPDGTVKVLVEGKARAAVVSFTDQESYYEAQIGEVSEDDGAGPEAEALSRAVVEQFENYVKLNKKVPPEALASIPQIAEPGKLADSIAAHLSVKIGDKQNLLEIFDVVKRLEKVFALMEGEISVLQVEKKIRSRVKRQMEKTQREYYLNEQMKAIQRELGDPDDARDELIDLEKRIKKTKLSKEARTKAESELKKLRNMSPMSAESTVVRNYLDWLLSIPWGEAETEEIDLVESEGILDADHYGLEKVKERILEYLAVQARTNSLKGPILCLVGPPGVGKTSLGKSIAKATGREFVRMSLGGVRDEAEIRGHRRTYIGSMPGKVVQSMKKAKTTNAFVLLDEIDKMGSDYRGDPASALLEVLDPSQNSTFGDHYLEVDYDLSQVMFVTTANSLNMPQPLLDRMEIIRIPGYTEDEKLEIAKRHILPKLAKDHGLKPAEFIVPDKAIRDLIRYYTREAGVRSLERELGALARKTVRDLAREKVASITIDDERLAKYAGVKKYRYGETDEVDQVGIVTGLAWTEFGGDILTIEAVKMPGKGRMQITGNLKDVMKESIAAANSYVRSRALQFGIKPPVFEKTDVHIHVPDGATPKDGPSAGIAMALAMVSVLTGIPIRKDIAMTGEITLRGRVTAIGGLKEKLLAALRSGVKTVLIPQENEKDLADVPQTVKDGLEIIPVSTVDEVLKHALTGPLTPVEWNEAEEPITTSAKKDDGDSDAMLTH


How the values were obtained:
Lon (wild type) = target: T1, Lon (wild type); test: mass photometry; 200 nM Lon monomer; shift to HMW, median 592 kDa vs 515 kDa, consistent with one ssDNA per protomer; FP: 25 mM HEPES pH 7.5, 10 mM MgCl2, 100 mM KCl, 0.05% Tween-20, 30 C, 0.1 uM Lon (hexamer), 25 nM DNA; mass photometry in TK buffer, 200 nM Lon; settings: protein: recombinant; chain copies: 6
Lon4A = target: T2, Lon4A; test: fluorescence polarization; 0.1 uM Lon4A, 25 nM FAM-ssDNA; FP: 25 mM HEPES pH 7.5, 10 mM MgCl2, 100 mM KCl, 0.05% Tween-20, 30 C, 0.1 uM Lon (hexamer), 25 nM DNA; mass photometry in TK buffer, 200 nM Lon; settings: protein: recombinant; chain copies: 6; label: FAM (printed at 5' side)
Lon4E = target: T3, Lon4E; test: fluorescence polarization; 0.1 uM Lon4E, 25 nM FAM-ssDNA; FP: 25 mM HEPES pH 7.5, 10 mM MgCl2, 100 mM KCl, 0.05% Tween-20, 30 C, 0.1 uM Lon (hexamer), 25 nM DNA; mass photometry in TK buffer, 200 nM Lon; settings: protein: recombinant; chain copies: 6; label: FAM (printed at 5' side)

| Binder | binding result (Lon (wild type)) | binding result (Lon4A) | binding result (Lon4E) |
| --- | --- | --- | --- |
| TCGATTCTCGAGTTAGTCGTCTTCTGGTGCCGGAAA (ssDNA) [OPC698-Stim] | binds |  |  |
| AACGGATGATCCACAGGAGAGTCTGGCGCAGGGCGAGAG (ssDNA) [FAM-ssDNA (G1Box top strand)] |  | no binding | no binding |
